Measured values: the supplement of paper PMC7125110
± gives the standard error. For part of these data: This sample holds only a part of the variants without activity.

B1: glmS ribozyme (parent)
chain: AUAAAAGCGCCAGAACUACAGAAAUGUAGUUGACGAGGAGGAGGUUUAUCGAAUUUUCGGCGGAUGCCUCCAAA

What was measured:
Settings in all cases: with glucosamine-6-phosphate
[1] = variants of: B1; assay: self-cleavage kobs at 40 uM GlcN6P; higher = faster cleavage; RNA array
In short: (§1)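 A hybridised Cy3 probe tracked barcoded ribozyme variants, transcribed in situ by E. coli RNA polymerase on sequenced MiSeq chips, at 37 °C. The variants received 40 μM to 10 mM glucosamine-6-phosphate in HEPES/KCl/Mg(OAc)2 buffer. kobs came from decay fits and kcat and KM from weighted Michaelis–Menten fits.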

[2] = variants of: B1; assay: self-cleavage kobs at 640 uM GlcN6P; higher = faster cleavage; RNA array
In short: as §1

[3] = variants of: B1; assay: self-cleavage kobs at 2500 uM GlcN6P; higher = faster cleavage; RNA array
In short: as §1

[4] = variants of: B1; assay: self-cleavage kobs at 10000 uM GlcN6P; higher = faster cleavage; RNA array
In short: as §1

[5] = variants of: B1; assay: kcat; higher = faster cleavage; RNA array
In short: as §1

[6] = variants of: B1; assay: self-cleavage kobs at 160 uM GlcN6P; higher = faster cleavage; RNA array
In short: as §1

[7] = variants of: B1; assay: KM; higher = weaker cofactor use; RNA array
In short: as §1

G37C A48C
self-cleavage kobs at 40 uM GlcN6P [1]: < 1e-05 s⁻¹
self-cleavage kobs at 640 uM GlcN6P [2]: < 1e-05 s⁻¹
self-cleavage kobs at 2500 uM GlcN6P [3]: < 1e-05 s⁻¹
self-cleavage kobs at 10000 uM GlcN6P [4]: < 1e-05 s⁻¹

A39G G59A
kcat [5]: 0.000106 ± 2.1e-05 s⁻¹
self-cleavage kobs at 2500 uM GlcN6P [3]: 7.4e-05 ± 1.8e-05 s⁻¹
self-cleavage kobs at 10000 uM GlcN6P [4]: 8.4e-05 ± 1.1e-05 s⁻¹

C10U U46A U49A U65C C68G
self-cleavage kobs at 40 uM GlcN6P [1]: < 1e-05 s⁻¹
self-cleavage kobs at 10000 uM GlcN6P [4]: < 1e-05 s⁻¹

G29C C34A
self-cleavage kobs at 40 uM GlcN6P [1]: < 1e-05 s⁻¹
self-cleavage kobs at 160 uM GlcN6P [6]: < 1e-05 s⁻¹
self-cleavage kobs at 640 uM GlcN6P [2]: < 1e-05 s⁻¹
self-cleavage kobs at 2500 uM GlcN6P [3]: < 1e-05 s⁻¹
self-cleavage kobs at 10000 uM GlcN6P [4]: < 1e-05 s⁻¹

A33U G44C C68U
self-cleavage kobs at 40 uM GlcN6P [1]: < 1e-05 s⁻¹
self-cleavage kobs at 10000 uM GlcN6P [4]: < 1e-05 s⁻¹

G43C U46C
self-cleavage kobs at 40 uM GlcN6P [1]: < 1e-05 s⁻¹
self-cleavage kobs at 160 uM GlcN6P [6]: < 1e-05 s⁻¹
self-cleavage kobs at 640 uM GlcN6P [2]: < 1e-05 s⁻¹
self-cleavage kobs at 2500 uM GlcN6P [3]: < 1e-05 s⁻¹

G29C U45A
self-cleavage kobs at 40 uM GlcN6P [1]: 7.41e-05 ± 2.6e-05 s⁻¹
self-cleavage kobs at 640 uM GlcN6P [2]: 0.000828 ± 0.00023 s⁻¹
self-cleavage kobs at 2500 uM GlcN6P [3]: 0.000499 ± 0.00024 s⁻¹
self-cleavage kobs at 10000 uM GlcN6P [4]: 0.00281 ± 0.00086 s⁻¹

G9A A12U G13C G40C
self-cleavage kobs at 40 uM GlcN6P [1]: < 1e-05 s⁻¹
self-cleavage kobs at 10000 uM GlcN6P [4]: < 1e-05 s⁻¹

A15C G35A
self-cleavage kobs at 40 uM GlcN6P [1]: < 1e-05 s⁻¹
self-cleavage kobs at 160 uM GlcN6P [6]: < 1e-05 s⁻¹
self-cleavage kobs at 640 uM GlcN6P [2]: < 1e-05 s⁻¹
self-cleavage kobs at 2500 uM GlcN6P [3]: < 1e-05 s⁻¹
self-cleavage kobs at 10000 uM GlcN6P [4]: < 1e-05 s⁻¹

G7C G29C
self-cleavage kobs at 40 uM GlcN6P [1]: < 1e-05 s⁻¹
self-cleavage kobs at 640 uM GlcN6P [2]: < 1e-05 s⁻¹
self-cleavage kobs at 2500 uM GlcN6P [3]: < 1e-05 s⁻¹
self-cleavage kobs at 10000 uM GlcN6P [4]: < 1e-05 s⁻¹

C8G G63U
self-cleavage kobs at 40 uM GlcN6P [1]: < 1e-05 s⁻¹
self-cleavage kobs at 10000 uM GlcN6P [4]: < 1e-05 s⁻¹

A42G U56G
self-cleavage kobs at 40 uM GlcN6P [1]: 0.000474 ± 5.8e-05 s⁻¹
self-cleavage kobs at 160 uM GlcN6P [6]: 0.00171 ± 0.00035 s⁻¹
self-cleavage kobs at 640 uM GlcN6P [2]: 0.00411 ± 0.00062 s⁻¹
self-cleavage kobs at 2500 uM GlcN6P [3]: 0.0067 ± 0.0013 s⁻¹
self-cleavage kobs at 10000 uM GlcN6P [4]: 0.0334 ± 0.0059 s⁻¹

U31A A33U
kcat [5]: 2.01e-05 ± 3.8e-06 s⁻¹
self-cleavage kobs at 40 uM GlcN6P [1]: < 1e-05 s⁻¹

A14U G35A
KM [7]: 6.51 ± 1.5 µM

G29U G32A
kcat [5]: 0.00151 ± 0.00013 s⁻¹
KM [7]: 2210 ± 350 µM
self-cleavage kobs at 40 uM GlcN6P [1]: 3.81e-05 ± 1.5e-05 s⁻¹
self-cleavage kobs at 160 uM GlcN6P [6]: 0.000105 ± 2.4e-05 s⁻¹
self-cleavage kobs at 640 uM GlcN6P [2]: 0.000328 ± 6.3e-05 s⁻¹
self-cleavage kobs at 2500 uM GlcN6P [3]: 0.000738 ± 0.00012 s⁻¹
self-cleavage kobs at 10000 uM GlcN6P [4]: 0.00128 ± 0.00016 s⁻¹

G37A U49A
self-cleavage kobs at 40 uM GlcN6P [1]: < 1e-05 s⁻¹
self-cleavage kobs at 640 uM GlcN6P [2]: < 1e-05 s⁻¹
self-cleavage kobs at 2500 uM GlcN6P [3]: < 1e-05 s⁻¹

C16G G35C
self-cleavage kobs at 40 uM GlcN6P [1]: < 1e-05 s⁻¹
self-cleavage kobs at 640 uM GlcN6P [2]: < 1e-05 s⁻¹
self-cleavage kobs at 2500 uM GlcN6P [3]: < 1e-05 s⁻¹
self-cleavage kobs at 10000 uM GlcN6P [4]: < 1e-05 s⁻¹

C34U U57C
self-cleavage kobs at 40 uM GlcN6P [1]: < 1e-05 s⁻¹
self-cleavage kobs at 160 uM GlcN6P [6]: < 1e-05 s⁻¹
self-cleavage kobs at 640 uM GlcN6P [2]: < 1e-05 s⁻¹
self-cleavage kobs at 2500 uM GlcN6P [3]: < 1e-05 s⁻¹
self-cleavage kobs at 10000 uM GlcN6P [4]: < 1e-05 s⁻¹

G35A G44U U49A
self-cleavage kobs at 40 uM GlcN6P [1]: < 1e-05 s⁻¹

G37C U47G U69G
kcat [5]: 7.04e-05 ± 2.8e-05 s⁻¹
self-cleavage kobs at 160 uM GlcN6P [6]: 7.9e-05 ± 2.3e-05 s⁻¹
self-cleavage kobs at 640 uM GlcN6P [2]: 5.97e-05 ± 2e-05 s⁻¹
self-cleavage kobs at 2500 uM GlcN6P [3]: 0.000138 ± 4.1e-05 s⁻¹
